In the Human Domainome abundance scans (Beltran et al. 2025) one finds abundance fitness data, which are given here for 95 substances.

± gives the uncertainty stated by the source.

This data set is described as follows: abundance fitness (aPCA) (normalised: wild type 0, dead -1); higher = more abundant; growth selection in yeast, the domain comes from the species named. The conditions noted are these: Homo sapiens.
With “Transcriptional activator Myb L199A, P10242”, the abundance fitness was -0.05 ± 0.062. Next, “Transcriptional activator Myb L199C, P10242”: -0.076 ± 0.1; “Transcriptional activator Myb L199D, P10242”: 0.011 ± 0.12. The result for “Transcriptional activator Myb L199E, P10242” reads -0.005 ± 0.081; that for “Transcriptional activator Myb L199F, P10242”, -0.179 ± 0.097; that for “Transcriptional activator Myb L199H, P10242”, -0.228 ± 0.2.

Regarding “Transcriptional activator Myb L199I, P10242”, the abundance fitness is -0.056 ± 0.1. The result for “Transcriptional activator Myb L199K, P10242” reads 0.025 ± 0.083; that for “Transcriptional activator Myb L199M, P10242”, -0.071 ± 0.095; that for “Transcriptional activator Myb L199N, P10242”, 0.043 ± 0.14. Next, “Transcriptional activator Myb L199P, P10242”: -0.013 ± 0.1. Next, “Transcriptional activator Myb L199Q, P10242”: -0.152 ± 0.12; “Transcriptional activator Myb L199R, P10242”: -0.045 ± 0.057; “Transcriptional activator Myb L199S, P10242”: 0.041 ± 0.068. On to “Transcriptional activator Myb L199T, P10242”, for which the abundance fitness is -0.043 ± 0.092. Next, “Transcriptional activator Myb L199V, P10242”: 0.032 ± 0.065; “Transcriptional activator Myb L199W, P10242”: -0.167 ± 0.1; “Transcriptional activator Myb L199Y, P10242”: -0.175 ± 0.21. Next, “Transcriptional activator Myb M189A, P10242”: -0.343 ± 0.068. Next, “Transcriptional activator Myb M189C, P10242”: -0.311 ± 0.095.

Take “Transcriptional activator Myb M189D, P10242”: the abundance fitness was -0.384 ± 0.094.

Regarding “Transcriptional activator Myb M189F, P10242”, the abundance fitness was -0.045 ± 0.16. Next, “Transcriptional activator Myb M189G, P10242”: -0.268 ± 0.05. The result for “Transcriptional activator Myb M189I, P10242” reads -0.313 ± 0.19; that for “Transcriptional activator Myb M189K, P10242”, 0.038 ± 0.14; that for “Transcriptional activator Myb M189L, P10242”, 0.073 ± 0.083. Next, “Transcriptional activator Myb M189N, P10242”: -0.155 ± 0.14; “Transcriptional activator Myb M189P, P10242”: -0.386 ± 0.17; “Transcriptional activator Myb M189R, P10242”: -0.303 ± 0.064.

Regarding “Transcriptional activator Myb M189S, P10242”, the abundance fitness is -0.303 ± 0.065. For “Transcriptional activator Myb M189T, P10242”, the abundance fitness was -0.181 ± 0.085. The result for “Transcriptional activator Myb M189V, P10242” reads -0.02 ± 0.064. Next, “Transcriptional activator Myb M189W, P10242”: -0.36 ± 0.093.

In the case of “Transcriptional activator Myb M189Y, P10242”, the abundance fitness is -0.535 ± 0.15. Next, “Transcriptional activator Myb N179A, P10242”: 0.001 ± 0.053; “Transcriptional activator Myb N179C, P10242”: -0.022 ± 0.088; “Transcriptional activator Myb N179E, P10242”: 0.016 ± 0.069. The result for “Transcriptional activator Myb N179F, P10242” reads -0.027 ± 0.12; that for “Transcriptional activator Myb N179G, P10242”, 0.004 ± 0.041; that for “Transcriptional activator Myb N179H, P10242”, -0.04 ± 0.094.

Regarding “Transcriptional activator Myb N179I, P10242”, the abundance fitness amounted to 0.127 ± 0.14.

“Transcriptional activator Myb N179L, P10242” showed an abundance fitness of 0.029 ± 0.059. Next, “Transcriptional activator Myb N179P, P10242”: -0.489 ± 0.097. Next, “Transcriptional activator Myb N179Q, P10242”: -0.025 ± 0.078. In the case of “Transcriptional activator Myb N179S, P10242”, the abundance fitness is -0.075 ± 0.061.

The substance “Transcriptional activator Myb N179T, P10242” returned an abundance fitness of 0.026 ± 0.075. “Transcriptional activator Myb N179W, P10242”: the abundance fitness was -0.169 ± 0.066. The result for “Transcriptional activator Myb N179Y, P10242” reads -0.075 ± 0.1.

For “Transcriptional activator Myb N183A, P10242”, the abundance fitness worked out at 0.037 ± 0.094. The result for “Transcriptional activator Myb N183C, P10242” reads -0.203 ± 0.12; that for “Transcriptional activator Myb N183D, P10242”, 0.142 ± 0.18. The result for “Transcriptional activator Myb N183E, P10242” reads 0.011 ± 0.098; that for “Transcriptional activator Myb N183F, P10242”, -0.176 ± 0.14; that for “Transcriptional activator Myb N183G, P10242”, -0.067 ± 0.063. The result for “Transcriptional activator Myb N183H, P10242” reads 0.141 ± 0.17. With “Transcriptional activator Myb N183I, P10242”, the abundance fitness was -0.022 ± 0.11. The result for “Transcriptional activator Myb N183K, P10242” reads -0.192 ± 0.099; that for “Transcriptional activator Myb N183L, P10242”, -0.074 ± 0.084; that for “Transcriptional activator Myb N183M, P10242”, 0.068 ± 0.11. The result for “Transcriptional activator Myb N183P, P10242” reads -1.09 ± 0.14; that for “Transcriptional activator Myb N183Q, P10242”, -0.094 ± 0.13.

For “Transcriptional activator Myb N183R, P10242”, the abundance fitness is -0.153 ± 0.051.

Take “Transcriptional activator Myb N183S, P10242”: the abundance fitness was -0.019 ± 0.085. “Transcriptional activator Myb N183T, P10242” registered an abundance fitness of 0.101 ± 0.086. The result for “Transcriptional activator Myb N183W, P10242” reads -0.198 ± 0.084; that for “Transcriptional activator Myb N183Y, P10242”, -0.343 ± 0.1; that for “Transcriptional activator Myb N186A, P10242”, -0.081 ± 0.07. Consider “Transcriptional activator Myb N186C, P10242”, for which the abundance fitness is -0.028 ± 0.089. Turning to “Transcriptional activator Myb N186E, P10242”, the abundance fitness amounted to 0.037 ± 0.079.

As to “Transcriptional activator Myb N186F, P10242”, the abundance fitness is -0.055 ± 0.13. Next, “Transcriptional activator Myb N186G, P10242”: -0.162 ± 0.055. Next, “Transcriptional activator Myb N186H, P10242”: -0.139 ± 0.19; “Transcriptional activator Myb N186I, P10242”: 0.027 ± 0.1; “Transcriptional activator Myb N186K, P10242”: 0.065 ± 0.1. The result for “Transcriptional activator Myb N186L, P10242” reads -0.016 ± 0.071; that for “Transcriptional activator Myb N186M, P10242”, -0.007 ± 0.11. Take “Transcriptional activator Myb N186P, P10242”: the abundance fitness is -0.804 ± 0.14.

“Transcriptional activator Myb N186R, P10242”: the abundance fitness is -0.047 ± 0.059. Next, “Transcriptional activator Myb N186S, P10242”: -0.062 ± 0.062; “Transcriptional activator Myb N186V, P10242”: -0.017 ± 0.072. The result for “Transcriptional activator Myb N186Y, P10242” reads -0.154 ± 0.15. Next, “Transcriptional activator Myb P174A, P10242”: -0.359 ± 0.066; “Transcriptional activator Myb P174C, P10242”: -0.239 ± 0.15. For the substance “Transcriptional activator Myb P174D, P10242”, the abundance fitness was -0.224 ± 0.1. Next, “Transcriptional activator Myb P174E, P10242”: -0.02 ± 0.098; “Transcriptional activator Myb P174F, P10242”: -0.298 ± 0.17. As for “Transcriptional activator Myb P174G, P10242”, the abundance fitness was -0.462 ± 0.056. With “Transcriptional activator Myb P174H, P10242”, the abundance fitness is -0.479 ± 0.12.

Consider “Transcriptional activator Myb P174I, P10242”, for which the abundance fitness is -0.339 ± 0.14. Next, “Transcriptional activator Myb P174K, P10242”: -0.086 ± 0.11; “Transcriptional activator Myb P174L, P10242”: -0.443 ± 0.082; “Transcriptional activator Myb P174M, P10242”: -0.329 ± 0.093. Next, “Transcriptional activator Myb P174N, P10242”: -0.255 ± 0.16. For “Transcriptional activator Myb P174R, P10242”, the abundance fitness is -0.251 ± 0.052. The result for “Transcriptional activator Myb P174S, P10242” reads -0.338 ± 0.088.
